# The supplement of paper PMC10126150
# ± gives the standard deviation of the averaged measurements.
# System: ATP
# Test: switch fluorescence ratio, 500 uM ATP over buffer (Cy3 cluster intensity, sum of 5 cycles each) (fold (ratio)); higher = stronger signal-on switching upon ATP binding; sequences stand for … in TCGTCGGCAGCGTCAGATGTGTATAAGAGACAGTTTTTTTTTTTTTTTTTTTTTTTTT…TC
# Details: aptamer strand: ATP DNA aptamer (quencher-CACCTGGGGGAGTATTGCGGAGGAAGG + anchor), 100 nM annealed; ATP concentration: 500 uM
# Procedure, shortened: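 After annealing to 100 nM quencher-labelled ATP aptamer, Cy3-labelled switching-strand clusters on a modified Illumina MiSeq flow-cell were imaged in selection buffer. A second image followed after 15 min with 500 uM ATP at 22 °C, and five such buffer/ATP cycles were done, each separated by NaOH stripping and re-annealing. The fluorescence ratio, averaged per switch-domain sequence, is summed target-cycle over summed buffer-cycle Cy3 intensity per cluster, with clusters outside 100-1000 RFU excluded.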
# 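Also: ATP exposure 15 min at 22 °C before imaging.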
sequence,measurement,value
CAAAAGACGG,switch fluorescence ratio,1.04 ± 0.02
AGTTGGTAG,switch fluorescence ratio,1.02 ± 0.033
TTTTAATGGA,switch fluorescence ratio,1.03 ± 0.029
GCAGACCATT,switch fluorescence ratio,1.049 ± 0.0067
GGGATTTTGG,switch fluorescence ratio,0.973 ± 0.026
TCGTAAGGAA,switch fluorescence ratio,1.01 ± 0.02
GCGGGAGATG,switch fluorescence ratio,1.04 ± 0.018
GGGGCTTTCC,switch fluorescence ratio,1.09 ± 0.052
ATAAGTTTTG,switch fluorescence ratio,0.978 ± 0.027
TATAAGTTGT,switch fluorescence ratio,1 ± 0.011
GTTTTTTTCG,switch fluorescence ratio,0.9829 ± 0.007
TTTCGTGTTG,switch fluorescence ratio,1.01 ± 0.017
TATGGTGCTT,switch fluorescence ratio,1.01 ± 0.032
TGAGGTGCGT,switch fluorescence ratio,0.995 ± 0.033
GGGTTATCGG,switch fluorescence ratio,0.967 ± 0.041
CAGGGGGTAT,switch fluorescence ratio,0.997 ± 0.026
ATTGTTTAAG,switch fluorescence ratio,1.01 ± 0.024
ACGGATTGAA,switch fluorescence ratio,1.003 ± 0.0058
CACAAGGGCC,switch fluorescence ratio,1.03 ± 0.018
CATTGCAGTG,switch fluorescence ratio,1.03 ± 0.02
ACTTGCTATC,switch fluorescence ratio,1.25 ± 0.048
TTACCGGACT,switch fluorescence ratio,1.11 ± 0.042
CGGCCATCGG,switch fluorescence ratio,0.9978 ± 0.0049
ACCAACTCAG,switch fluorescence ratio,1.24 ± 0.037
GGTTCGTATT,switch fluorescence ratio,0.975 ± 0.038
CTCGGTTGAC,switch fluorescence ratio,1.07 ± 0.015
AGGGGTTAAT,switch fluorescence ratio,0.985 ± 0.035
GTTATGCTAT,switch fluorescence ratio,0.996 ± 0.017
TGTTGTTATT,switch fluorescence ratio,1.018 ± 0.0091
TTGAGATTAT,switch fluorescence ratio,0.986 ± 0.015
CCGGTTGTGG,switch fluorescence ratio,1.01 ± 0.02
TCAGGTCTGT,switch fluorescence ratio,0.9958 ± 0.0074
TAGGCTTATG,switch fluorescence ratio,0.9786 ± 0.0037
ATGAAGGGGT,switch fluorescence ratio,0.959 ± 0.033
ACTGAAGATT,switch fluorescence ratio,1.0263 ± 0.00089
AGGGGTTTGA,switch fluorescence ratio,1.01 ± 0.047
TATGGGGCAG,switch fluorescence ratio,0.99 ± 0.0093
TCATTTGGGA,switch fluorescence ratio,1.008 ± 0.0033
GCAAGACATT,switch fluorescence ratio,1.12 ± 0.019
GTAATAGTAT,switch fluorescence ratio,1.006 ± 0.0061
CGAATCAATC,switch fluorescence ratio,2.51 ± 0.44
GGTACGTTTG,switch fluorescence ratio,0.993 ± 0.033
CCGGAGGGGT,switch fluorescence ratio,1.38 ± 0.018
ATCTGGCGTC,switch fluorescence ratio,0.998 ± 0.033
TTTATGGGTA,switch fluorescence ratio,1 ± 0.033
ATATAAGAGC,switch fluorescence ratio,1.03 ± 0.02
AGAATTGTAC,switch fluorescence ratio,1.05 ± 0.014
ACCGGAGGGC,switch fluorescence ratio,0.9905 ± 0.0044
ATTGGATGTG,switch fluorescence ratio,0.981 ± 0.019
GGGGTTTTGG,switch fluorescence ratio,0.995 ± 0.025
GGCCTAAATT,switch fluorescence ratio,0.989 ± 0.031
TCTATTTGTG,switch fluorescence ratio,0.966 ± 0.02
AGTGGTGAGT,switch fluorescence ratio,0.977 ± 0.025
CCACTGTTGG,switch fluorescence ratio,0.992 ± 0.029
TTAGACTTAT,switch fluorescence ratio,1.01 ± 0.021
ATGTAAAGGT,switch fluorescence ratio,1.04 ± 0.058
GGGGCTGGCG,switch fluorescence ratio,1.03 ± 0.11
GTCGCAAGTT,switch fluorescence ratio,1.01 ± 0.018
TCATGAGGGA,switch fluorescence ratio,1.02 ± 0.022
TTTTTTT,switch fluorescence ratio,0.9671 ± 0.0074
TTATCGGTAT,switch fluorescence ratio,1 ± 0.042
ATTTTGAGTT,switch fluorescence ratio,0.982 ± 0.016
GAGTGCGCTG,switch fluorescence ratio,1.02 ± 0.04
TTTATGTGTG,switch fluorescence ratio,0.999 ± 0.026
CAGGACCCGT,switch fluorescence ratio,0.9965 ± 0.0019
TGGTTATGGG,switch fluorescence ratio,0.985 ± 0.022
TGCGGGTGTG,switch fluorescence ratio,1.03 ± 0.021
TGGTTCGAGA,switch fluorescence ratio,0.979 ± 0.025
CTGAAAGGGA,switch fluorescence ratio,1.01 ± 0.02
TGTATGAGGT,switch fluorescence ratio,1.02 ± 0.013
ATGGAATAAG,switch fluorescence ratio,0.998 ± 0.028
TGCCTATTTC,switch fluorescence ratio,1.02 ± 0.017
ATTTGGGGCT,switch fluorescence ratio,0.981 ± 0.017
TTCGGGTTAA,switch fluorescence ratio,1.05 ± 0.017
TAGGTGGTTG,switch fluorescence ratio,1 ± 0.03
TGATTTATTC,switch fluorescence ratio,0.9632 ± 0.0032
ACTGTGAATT,switch fluorescence ratio,1.02 ± 0.011
GGGGTGCCAA,switch fluorescence ratio,0.975 ± 0.067
TTCTGTTATC,switch fluorescence ratio,1.023 ± 0.0087
CAAGGTCCGA,switch fluorescence ratio,0.99445 ± 0.00086
TCATATTTGT,switch fluorescence ratio,0.981 ± 0.019
CGAACGGGGG,switch fluorescence ratio,1 ± 0.032
TTTTTACCCT,switch fluorescence ratio,1.08 ± 0.067
AGGGGGTAAT,switch fluorescence ratio,1.01 ± 0.049
GCTGGGGCAG,switch fluorescence ratio,1.016 ± 0.01
AGGGGGCCGC,switch fluorescence ratio,0.976 ± 0.087
TCTGGATATT,switch fluorescence ratio,1.01 ± 0.025
ACTTATTGTA,switch fluorescence ratio,0.9878 ± 0.0098
AAAAGGGGGG,switch fluorescence ratio,1.02 ± 0.044
TATACGACAT,switch fluorescence ratio,1.16 ± 0.2
CTGAGTGGGA,switch fluorescence ratio,1.02 ± 0.013
TGAGAGTTTT,switch fluorescence ratio,0.978 ± 0.036
CATAAAGAGT,switch fluorescence ratio,0.996 ± 0.01
CGATAGTTAG,switch fluorescence ratio,0.986 ± 0.044
AACATTCGTT,switch fluorescence ratio,1.034 ± 0.0042
GCTCCAATAA,switch fluorescence ratio,2.49 ± 0.047
AGCGGGAGGG,switch fluorescence ratio,1.02 ± 0.015
GATTGCAGCG,switch fluorescence ratio,1.002 ± 0.0016
ATGAGGGCTT,switch fluorescence ratio,0.981 ± 0.055
TAGTTGGGGT,switch fluorescence ratio,1 ± 0.03
AACTGGATAT,switch fluorescence ratio,1.04 ± 0.017
TTCACAAGG,switch fluorescence ratio,1.0218 ± 0.00034
TAATGGTATT,switch fluorescence ratio,0.97547 ± 0.00097
TAGGGTTCGC,switch fluorescence ratio,1.06 ± 0.082
GGCACGGGGC,switch fluorescence ratio,1.02 ± 0.024
CGATGGTGGC,switch fluorescence ratio,1.073 ± 0.0067
GAGTATGAGA,switch fluorescence ratio,1.009 ± 0.01
CTCTGAGGTT,switch fluorescence ratio,1 ± 0.035
GCAAAAGGGC,switch fluorescence ratio,1.02 ± 0.014
CAGAGGAGGG,switch fluorescence ratio,0.9747 ± 0.008
ATAGTTATTG,switch fluorescence ratio,1.01 ± 0.022
TGGAGCTTGA,switch fluorescence ratio,1.02 ± 0.021
AATTGTTTGT,switch fluorescence ratio,0.998 ± 0.016
TAAAAAGCGA,switch fluorescence ratio,0.987 ± 0.012
TAGTAGACTC,switch fluorescence ratio,1.46 ± 0.75
GTATTAGTAA,switch fluorescence ratio,1.006 ± 0.0038
AAGGGCTACG,switch fluorescence ratio,0.983 ± 0.04
CCGATGAGCT,switch fluorescence ratio,1.42 ± 0.035
CGGTCATAAG,switch fluorescence ratio,0.982 ± 0.043
ATTCATGTGT,switch fluorescence ratio,1.02 ± 0.026
ATGCGGTTTT,switch fluorescence ratio,0.986 ± 0.03
ATCAGAGGGG,switch fluorescence ratio,1.03 ± 0.019
GGTCGCCCAG,switch fluorescence ratio,1.01 ± 0.035
TAAAGGGCTT,switch fluorescence ratio,1.02 ± 0.018
TAATCACAAT,switch fluorescence ratio,1.032 ± 0.0044
GGCCGATTGT,switch fluorescence ratio,0.962 ± 0.024
AAAGAAAGC,switch fluorescence ratio,1.02 ± 0.08
GTGGGAGCTG,switch fluorescence ratio,0.99 ± 0.0079
GTGTTCTGGA,switch fluorescence ratio,1.002 ± 0.006
CGAGGTGGGA,switch fluorescence ratio,0.9972 ± 0.0025
TTTATAAGGA,switch fluorescence ratio,0.997 ± 0.037
CACGAAGGAA,switch fluorescence ratio,1.07 ± 0.019
CTATACGGTA,switch fluorescence ratio,1.128 ± 0.0097
GGGGGCTGCT,switch fluorescence ratio,0.962 ± 0.029
GAGTTCGTAA,switch fluorescence ratio,1.46 ± 0.15
ATTCATATGT,switch fluorescence ratio,0.999 ± 0.018
GAGTGGAGTG,switch fluorescence ratio,1.02 ± 0.079
TAATGGGACG,switch fluorescence ratio,1.08 ± 0.14
GGATCGGTCA,switch fluorescence ratio,1.016 ± 0.0089
ATCACGGGAA,switch fluorescence ratio,1.055 ± 0.0074
CGTTGAATAT,switch fluorescence ratio,1.01 ± 0.016
TGGTCGCCGT,switch fluorescence ratio,0.978 ± 0.14
GGACAGAGGT,switch fluorescence ratio,1 ± 0.044
GGAGCACGTG,switch fluorescence ratio,1.12 ± 0.058
AAACATTTCA,switch fluorescence ratio,0.976 ± 0.063
TGGGGGCTTA,switch fluorescence ratio,0.99 ± 0.059
AGACACTTAA,switch fluorescence ratio,1.04 ± 0.023
TGACGGTAGC,switch fluorescence ratio,1.06 ± 0.056
AGTGTGATAG,switch fluorescence ratio,0.995 ± 0.034
TTTGAGTCCG,switch fluorescence ratio,1.04 ± 0.065
CGGTTAATTC,switch fluorescence ratio,1.012 ± 0.0028
TGGGGTCAAG,switch fluorescence ratio,0.991 ± 0.01
TTTCGGATGT,switch fluorescence ratio,0.984 ± 0.04
